This series deals with FUBP1-strep (UniProt Q96AE4 1-644). The series is described as follows: EMSA; EMSA: 10 mM Tris pH 7.5, 140 mM KCl, 10 mM NaCl, 1 mM MgCl2, 10% glycerol, 1 mM DTT, RNase inhibitor 1 U/ul, room temperature 30 min; probe 20 nM (Fig. 3A) or 10 nM (Fig. 5E, S5D). Pull-down: HepG2 lysate (50 mM Tris pH 7.5, 100 mM NaCl, 1% NP-40, 0.5% deoxycholate) + tRNA 50 ug/ml, RT 30 min then 4 C 90 min; washes 10 mM Tris pH 7.5, 150 mM KCl, 1.5 mM MgCl2, 0.1% NP-40, 0.5 mM DTT. The conditions noted are these: protein: recombinant; tags: C-terminal Strep-tag; label: 5' FAM. For orientation: A gel shift assay detects complexes by their altered migration in electrophoresis.
FUBP1-strep, sequence (Q96AE4 whole entry): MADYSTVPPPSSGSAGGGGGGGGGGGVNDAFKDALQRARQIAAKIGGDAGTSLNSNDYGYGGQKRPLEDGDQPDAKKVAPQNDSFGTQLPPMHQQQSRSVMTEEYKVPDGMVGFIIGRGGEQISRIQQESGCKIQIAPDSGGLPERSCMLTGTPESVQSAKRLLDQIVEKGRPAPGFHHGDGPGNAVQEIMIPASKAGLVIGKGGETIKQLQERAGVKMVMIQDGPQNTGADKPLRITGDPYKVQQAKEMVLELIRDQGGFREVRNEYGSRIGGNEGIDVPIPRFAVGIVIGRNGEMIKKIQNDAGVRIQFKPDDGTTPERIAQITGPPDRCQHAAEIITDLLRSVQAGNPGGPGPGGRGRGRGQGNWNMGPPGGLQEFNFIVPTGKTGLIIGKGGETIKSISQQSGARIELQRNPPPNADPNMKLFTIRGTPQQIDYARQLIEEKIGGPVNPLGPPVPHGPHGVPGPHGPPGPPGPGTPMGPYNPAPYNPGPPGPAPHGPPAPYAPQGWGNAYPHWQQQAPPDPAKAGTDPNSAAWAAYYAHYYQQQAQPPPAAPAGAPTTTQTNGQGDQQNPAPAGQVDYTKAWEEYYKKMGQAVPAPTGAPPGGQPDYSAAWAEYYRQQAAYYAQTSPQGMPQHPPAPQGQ

In the case of CGCUGAGUGCGCUGCACUGACCUUCUUCCA (ssRNA, 2'-O-methyl, multiple sites) [SNX5 Nm], the binding result is recorded as “binds”.

On to ACUGAACGCCUUUAAGUCAGAAUCCCACCC (ssRNA, 2'-O-methyl at G4, G16, C18, A19, C24, C25, A27) [SEC14L1 Nm], for which the binding result is recorded as “binds”.

These data come from publication PMC12533644, “Nuclear 2′-O-methylation regulates RNA splicing through its binding protein FUBP1”.
